Values of other authors as cited in patent US20130145495A1, “ENHANCED CARBON FIXATION IN PHOTOSYNTHETIC HOSTS” (DONALD DANFORTH PLANT SCIENCE CENTER, priority 2010, published 2013).

B1: hCAXV: α-carbonic anhydrase isoenzyme XV, membrane (protein, UniProt Q99N23 19-324, looked up)
Carbonic anhydrase 15: VDSSGTWCYDSQDPKCGPAHWKELAPACGGPTQSPINIDLRLVQRDYTLKPFIFQGYDSAPQDPWVLENDGHTVLLRVNSCQQNCPAIRGAGLPSPEYRLLQLHFHWGSPGHQGSEHSLDEKHGSMEMHMVHMNTKYQSMEDARSQPDGFAILAVLLVEEDRDNTNFSAIVSGLKNLSSPGVAVNLTSTFALASLLPSALRLLRYYRYSGSLTTPGCEPAVLWTVFENTVPIGHAQVVQFQAVLQTGPPGLHPRPLTSNFRPQQPLGGRRISASPEASVRSSVSTLPCLHLALVGLGVGLRLWQGP
B2: hCAIV: human α-carbonic anhydrase isoenzyme IV, membrane (protein, UniProt P22748 19-284, looked up)
Carbonic anhydrase 4: AESHWCYEVQAESSNYPCLVPVKWGGNCQKDRQSPINIVTTKAKVDKKLGRFFFSGYDKKQTWTVQNNGHSVMMLLENKASISGGGLPAPYQAKQLHLHWSDLPYKGSEHSLDGEHFAMEMHIVHEKEKGTSRNVKEAQDPEDEIAVLAFLVEAGTQVNEGFQPLVEALSNIPKPEMSTTMAESSLLDLLPKEEKLRHYFRYLGSLTTPTCDEKVVWTVFREPIQLHREQILAFSQKLYYDKEQTVSMKDNVRPLQQLGQRTVIKS
B3: hCAVB: human α-carbonic anhydrase isoenzyme VB, mitochondria (protein, UniProt Q9Y2D0 34-317, looked up)
Carbonic anhydrase 5B, …: CSLYTCTYKTRNRALHPLWESVDLVPGGDRQSPINIRWRDSVYDPGLKPLTISYDPATCLHVWNNGYSFLVEFEDSTDKSVIKGGPLEHNYRLKQFHFHWGAIDAWGSEHTVDSKCFPAELHLVHWNAVRFENFEDAALEENGLAVIGVFLKLGKHHKELQKLVDTLPSIKHKDALVEFGSFDPSCLMPTCPDYWTYSGSLTTPPLSESVTWIIKKQPVEVDHDQLEQFRTLLFTSEGEKEKRMVDNFRPLQPLMNRTVRSSFRHDYVLNVQAKPKPATSQATP
B4: hCAVA: human α-carbonic anhydrase isoenzyme VA, mitochondria (protein, UniProt P35218 39-305, looked up)
Carbonic anhydrase 5A, …: CAWQTSNNTLHPLWTVPVSVPGGTRQSPINIQWRDSVYDPQLKPLRVSYEAASCLYIWNTGYLFQVEFDDATEASGISGGPLENHYRLKQFHFHWGAVNEGGSEHTVDGHAYPAELHLVHWNSVKYQNYKEAVVGENGLAVIGVFLKLGAHHQTLQRLVDILPEIKHKDARAAMRPFDPSTLLPTCWDYWTYAGSLTTPPLTESVTWIIQKEPVEVAPSQLSAFRTLLFSALGEEEKMMVNNYRPLQPLMNRKVWASFQATNEGTRS
B5: hCAIII: human α-carbonic anhydrase isoenzyme III, cytosol (protein, UniProt P07451 2-260, looked up)
Carbonic anhydrase 3: AKEWGYASHNGPDHWHELFPNAKGENQSPVELHTKDIRHDPSLQPWSVSYDGGSAKTILNNGKTCRVVFDDTYDRSMLRGGPLPGPYRLRQFHLHWGSSDDHGSEHTVDGVKYAAELHLVHWNPKYNTFKEALKQRDGIAVIGIFLKIGHENGEFQIFLDALDKIKTKGKEAPFTKFDPSCLFPACRDYWTYQGSFTTPPCEECIVWLLLKEPMTVSSDQMAKLRSLLSSAENEPPVPLVSNWRPPQPINNRVVRASFK
B6: hCAVII: human α-carbonic anhydrase isoenzyme VII, cytosol (protein, UniProt P43166 1-264, looked up)
Carbonic anhydrase 7: MTGHHGWGYGQDDGPSHWHKLYPIAQGDRQSPINIISSQAVYSPSLQPLELSYEACMSLSITNNGHSVQVDFNDSDDRTVVTGGPLEGPYRLKQFHFHWGKKHDVGSEHTVDGKSFPSELHLVHWNAKKYSTFGEAASAPDGLAVVGVFLETGDEHPSMNRLTDALYMVRFKGTKAQFSCFNPKCLLPASRHYWTYPGSLTTPPLSESVTWIVLREPICISERQMGKFRSLLFTSEDDERIHMVNNFRPPQPLKGRVVKASFRA
B7: hCAVI: human α-carbonic anhydrase isoenzyme VI, secreted (protein, UniProt P23280 18-308, looked up)
Carbonic anhydrase 6: QHVSDWTYSEGALDEAHWPQHYPACGGQRQSPINLQRTKVRYNPSLKGLNMTGYETQAGEFPMVNNGHTVQISLPSTMRMTVADGTVYIAQQMHFHWGGASSEISGSEHTVDGIRHVIEIHIVHYNSKYKSYDIAQDAPDGLAVLAAFVEVKNYPENTYYSNFISHLANIKYPGQRTTLTGLDVQDMLPRNLQHYYTYHGSLTTPPCTENVHWFVLADFVKLSRTQVWKLENSLLDHRNKTIHNDYRRTQPLNHRVVESNFPNQEYTLGSEFQFYLHKIEEILDYLRRALN
B8: hCAXIV: human α-carbonic anhydrase isoenzyme XIV, transmembrane (protein, UniProt Q9ULX7 16-337, looked up)
Carbonic anhydrase 14: ADGGQHWTYEGPHGQDHWPASYPECGNNAQSPIDIQTDSVTFDPDLPALQPHGYDQPGTEPLDLHNNGHTVQLSLPSTLYLGGLPRKYVAAQLHLHWGQKGSPGGSEHQINSEATFAELHIVHYDSDSYDSLSEAAERPQGLAVLGILIEVGETKNIAYEHILSHLHEVRHKDQKTSVPPFNLRELLPKQLGQYFRYNGSLTTPPCYQSVLWTVFYRRSQISMEQLEKLQGTLFSTEEEPSKLLVQNYRALQPLNQRMVFASFIQAGSSYTTGEMLSLGVGILVGCLCLLLAVYFIARKIRKKRLENRKSVVFTSAQATTEA
B9: hCAXII: human α-carbonic anhydrase isoenzyme XII, transmembrane (protein, UniProt O43570 25-354, looked up)
Carbonic anhydrase 12: APVNGSKWTYFGPDGENSWSKKYPSCGGLLQSPIDLHSDILQYDASLTPLEFQGYNLSANKQFLLTNNGHSVKLNLPSDMHIQGLQSRYSATQLHLHWGNPNDPHGSEHTVSGQHFAAELHIVHYNSDLYPDASTASNKSEGLAVLAVLIEMGSFNPSYDKIFSHLQHVKYKGQEAFVPGFNIEELLPERTAEYYRYRGSLTTPPCNPTVLWTVFRNPVQISQEQLLALETALYCTHMDDPSPREMINNFRQVQKFDERLVYTSFSQVQVCTAAGLSLGIILSLALAGILGICIVVVVSIWLFRRKSIKKGDNKGVIYKPATKMETEAHA

test system: carbonic anhydrase

Molecule | Kcat [s⁻¹]
hCAXIII: human α-carbonic anhydrase isoenzyme XIII, cytosol | 150000
hCAI: human α-carbonic anhydrase isoenzyme I, cytosol | 200000
B1 | 470000
B2 | 1e+06
B3 | 950000
B4 | 290000
B5 | 10000
B6 | 950000
B7 | 340000
B8 | 310000
B9 | 420000
